± gives the uncertainty stated by the source.

The source of these data is the Human Domainome abundance scans (Beltran et al. 2025).

The chains are these.
B1: Homeobox protein SIX6, residues 134 to 184; numbered along this chain, O95475 (parent)
chain: CFKERTRHLLREWYLQDPYPNPSKKRELAQATGLTPTQVGNWFKNRRQRDR

In the data set the parent is B1. In words: abundance fitness (aPCA) (normalised: wild type 0, dead -1); higher = more abundant; growth selection in yeast, the domain comes from the species named. The conditions noted are these: Homo sapiens.
With CFKERTRHLLREWYLQDPYPNPSKKRELAQPTGLTPTQVGNWFKNRRQRDR [A31P], the abundance fitness was -0.782 ± 0.23. In the case of CFKERTRHLLREWYLQDPYPNPSKKRELAQSTGLTPTQVGNWFKNRRQRDR [A31S] it was -0.292 ± 0.081; in that of CFKERTRHLLREWYLQDPYPNPSKKRELAQETGLTPTQVGNWFKNRRQRDR [A31E], -0.14 ± 0.056. The result for CFKERTRHLLREWYLQDPYPNPSKKRELAQKTGLTPTQVGNWFKNRRQRDR [A31K] reads -0.364 ± 0.14; that for CFKERTRHLLREWYLQDPYPNPSKKRELAQYTGLTPTQVGNWFKNRRQRDR [A31Y], -0.36 ± 0.15. Regarding CFKERTRHLLREWYLQDPYPNPSKKRELAQGTGLTPTQVGNWFKNRRQRDR [A31G], the abundance fitness is -0.65 ± 0.058. Take CFKERTRHLLREWYLQDPYPNPSKKRELAQFTGLTPTQVGNWFKNRRQRDR [A31F]: the abundance fitness stood at 0.262 ± 0.11. Regarding CFKERTRHLLREWYLQDPYPNPSKKRELAQNTGLTPTQVGNWFKNRRQRDR [A31N], the abundance fitness is -0.098 ± 0.1.

With CFKERTRHLLREWYLQDPYPNPSKKRELAQRTGLTPTQVGNWFKNRRQRDR [A31R], the abundance fitness is -0.185 ± 0.06. CFKERTRHLLREWYLQDPYPNPSKKRELAQQTGLTPTQVGNWFKNRRQRDR [A31Q]: the abundance fitness is -0.001 ± 0.09. For CFKERTRHLLREWYLQDPYPNPSKKRELAQITGLTPTQVGNWFKNRRQRDR [A31I], the abundance fitness came out at 0.253 ± 0.12. In the case of CFKERTRHLLREWYLQDPYPNPSKKRELAQDTGLTPTQVGNWFKNRRQRDR [A31D] it was -0.888 ± 0.32. For CFKERTRHLLREWYLQDPYPNPSKKRELAQWTGLTPTQVGNWFKNRRQRDR [A31W], the abundance fitness is -0.494 ± 0.11. CFKERTRHLLREWYLQDPYPNPSKKRELAQCTGLTPTQVGNWFKNRRQRDR [A31C]: the abundance fitness was -0.287 ± 0.082. In the case of CFKERTRHLLREWYLQDPYPNPSKKRELAQHTGLTPTQVGNWFKNRRQRDR [A31H] it was -0.514 ± 0.14; in that of CFKERTRHLLREWYLQDPYPNPSKKRELAIATGLTPTQVGNWFKNRRQRDR [Q30I], 0.036 ± 0.11; in that of CFKERTRHLLREWYLQDPYPNPSKKRELADATGLTPTQVGNWFKNRRQRDR [Q30D], -0.064 ± 0.085. CFKERTRHLLREWYLQDPYPNPSKKRELAPATGLTPTQVGNWFKNRRQRDR [Q30P]: the abundance fitness was -0.893 ± 0.19.

As for CFKERTRHLLREWYLQDPYPNPSKKRELALATGLTPTQVGNWFKNRRQRDR [Q30L], the abundance fitness was -0.25 ± 0.046. With CFKERTRHLLREWYLQDPYPNPSKKRELARATGLTPTQVGNWFKNRRQRDR [Q30R], the abundance fitness was -0.365 ± 0.059. The result for CFKERTRHLLREWYLQDPYPNPSKKRELAMATGLTPTQVGNWFKNRRQRDR [Q30M] reads -0.006 ± 0.073. Regarding CFKERTRHLLREWYLQDPYPNPSKKRELAVATGLTPTQVGNWFKNRRQRDR [Q30V], the abundance fitness is -0.059 ± 0.048.

Consider CFKERTRHLLREWYLQDPYPNPSKKRELAKATGLTPTQVGNWFKNRRQRDR [Q30K], for which the abundance fitness is -0.03 ± 0.1. In the case of CFKERTRHLLREWYLQDPYPNPSKKRELAAATGLTPTQVGNWFKNRRQRDR [Q30A], the abundance fitness is -0.219 ± 0.089. In the case of CFKERTRHLLREWYLQDPYPNPSKKRELAFATGLTPTQVGNWFKNRRQRDR [Q30F] it was -0.239 ± 0.11; in that of CFKERTRHLLREWYLQDPYPNPSKKRELACATGLTPTQVGNWFKNRRQRDR [Q30C], -0.301 ± 0.11; in that of CFKERTRHLLREWYLQDPYPNPSKKRELAHATGLTPTQVGNWFKNRRQRDR [Q30H], -0.205 ± 0.15. On to CFKERTRHLLREWYLQDPYPNPSKKRELAYATGLTPTQVGNWFKNRRQRDR [Q30Y], for which the abundance fitness was -0.381 ± 0.1. In the case of CFKERTRHLLREWYLQDPYPNPSKKRELAEATGLTPTQVGNWFKNRRQRDR [Q30E] it was -0.193 ± 0.12; in that of CFKERTRHLLREWYLQDPYPNPSKKRELANATGLTPTQVGNWFKNRRQRDR [Q30N], -0.374 ± 0.17; in that of CFKERTRHLLREWYLQDPYPNPSKKRELATATGLTPTQVGNWFKNRRQRDR [Q30T], -0.051 ± 0.084.

Consider CFKERTRHLLREWYLQDPYPNPSKKRELAGATGLTPTQVGNWFKNRRQRDR [Q30G], for which the abundance fitness was -0.276 ± 0.065. For the variant CFKERTRHLLREWYLQDPYPNPSKKRELAWATGLTPTQVGNWFKNRRQRDR [Q30W], the abundance fitness worked out at 0.057 ± 0.069.

CFKERTRHLLREWYLQDPYPNPSKKRELAQATALTPTQVGNWFKNRRQRDR [G33A]: the abundance fitness was -0.712 ± 0.059. The result for CFKERTRHLLREWYLQDPYPNPSKKRELAQATDLTPTQVGNWFKNRRQRDR [G33D] reads -0.629 ± 0.14; that for CFKERTRHLLREWYLQDPYPNPSKKRELAQATWLTPTQVGNWFKNRRQRDR [G33W], -0.853 ± 0.065; that for CFKERTRHLLREWYLQDPYPNPSKKRELAQATCLTPTQVGNWFKNRRQRDR [G33C], -0.757 ± 0.081.

On to CFKERTRHLLREWYLQDPYPNPSKKRELAQATYLTPTQVGNWFKNRRQRDR [G33Y], for which the abundance fitness was -0.741 ± 0.19. In the case of CFKERTRHLLREWYLQDPYPNPSKKRELAQATFLTPTQVGNWFKNRRQRDR [G33F] it was -0.946 ± 0.14; in that of CFKERTRHLLREWYLQDPYPNPSKKRELAQATPLTPTQVGNWFKNRRQRDR [G33P], -0.848 ± 0.061; in that of CFKERTRHLLREWYLQDPYPNPSKKRELAQATNLTPTQVGNWFKNRRQRDR [G33N], -0.499 ± 0.082. Turning to CFKERTRHLLREWYLQDPYPNPSKKRELAQATLLTPTQVGNWFKNRRQRDR [G33L], the abundance fitness was -0.735 ± 0.059. In the case of CFKERTRHLLREWYLQDPYPNPSKKRELAQATILTPTQVGNWFKNRRQRDR [G33I] it was -0.936 ± 0.32; in that of CFKERTRHLLREWYLQDPYPNPSKKRELAQATELTPTQVGNWFKNRRQRDR [G33E], -0.722 ± 0.09; in that of CFKERTRHLLREWYLQDPYPNPSKKRELAQATTLTPTQVGNWFKNRRQRDR [G33T], -0.727 ± 0.1.

For CFKERTRHLLREWYLQDPYPNPSKKRELAQATRLTPTQVGNWFKNRRQRDR [G33R], the abundance fitness was -0.738 ± 0.051. The result for CFKERTRHLLREWYLQDPYPNPSKKRELAQATHLTPTQVGNWFKNRRQRDR [G33H] reads -0.61 ± 0.066; that for CFKERTRHLLREWYLQDPYPNPSKKRELAQATSLTPTQVGNWFKNRRQRDR [G33S], -0.598 ± 0.065. In the case of CFKERTRHLLREWYLQDPYPNPSKKRELAQATKLTPTQVGNWFKNRRQRDR [G33K], the abundance fitness is -0.679 ± 0.072. In the case of CFKERTRHLLREWYLQDPYPNPSKKRELAQATMLTPTQVGNWFKNRRQRDR [G33M], the abundance fitness was -0.555 ± 0.11. As to CFKERTRHLLREWYLQDPYPNPSKKRELAQATQLTPTQVGNWFKNRRQRDR [G33Q], the abundance fitness is -0.514 ± 0.049.
